Source: PMC9482650, “Quantitative fragmentomics allow affinity mapping of interactomes” (Nature Communications, 2022)

Legend:
Assay in all cases: holdup assay
Set-up in all cases: key: below the threshold = too weak to quantify, mostly under pKd 3.1 to 4
Settings in all cases: plain residues with an end cap or a label only (N-terminal biotin on a linker: ado-ado)
GIPC2, Q8TF65 = target: GIPC2, Q8TF65
LNX2_3, Q8N448 = target: T1, LNX2_3, Q8N448
T1 sequence (Q8N448 463-564, limits assumed, looked up): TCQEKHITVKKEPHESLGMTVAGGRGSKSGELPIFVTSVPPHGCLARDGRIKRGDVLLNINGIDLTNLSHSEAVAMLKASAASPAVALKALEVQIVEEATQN

GRIP2_7, Q9C0E4 = target: GRIP2_7, Q9C0E4
Sequence of GRIP2_7, Q9C0E4 (Q9C0E4 934-1023): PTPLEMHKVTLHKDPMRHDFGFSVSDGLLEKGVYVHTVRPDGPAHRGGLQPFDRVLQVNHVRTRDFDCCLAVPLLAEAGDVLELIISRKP

MPP6, Q9NZW5 = target: T2, MPP6, Q9NZW5
T2 sequence (Q9NZW5 125-219, limits assumed, looked up): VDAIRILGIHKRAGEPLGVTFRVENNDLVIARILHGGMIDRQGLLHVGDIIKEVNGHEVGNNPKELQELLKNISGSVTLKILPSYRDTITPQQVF

DLG3_2, Q92796 = target: T3, DLG3_2, Q92796
T3 sequence (Q92796 221-321, limits assumed, looked up): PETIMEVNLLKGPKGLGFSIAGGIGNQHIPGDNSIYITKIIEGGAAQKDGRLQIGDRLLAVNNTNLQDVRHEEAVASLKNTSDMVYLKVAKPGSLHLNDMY

PDLIM1, O00151 = target: PDLIM1, O00151
Sequence of PDLIM1, O00151 (O00151 1-87): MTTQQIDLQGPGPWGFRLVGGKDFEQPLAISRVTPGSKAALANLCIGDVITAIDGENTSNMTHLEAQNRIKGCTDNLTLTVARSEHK

SIPA1L2, Q9P2F8 = target: T4, SIPA1L2, Q9P2F8
T4 sequence (Q9P2F8 945-1036, limits assumed, looked up): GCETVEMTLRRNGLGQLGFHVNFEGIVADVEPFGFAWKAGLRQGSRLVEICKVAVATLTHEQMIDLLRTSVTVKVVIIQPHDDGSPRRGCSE

MPP2, Q14168 = target: T5, MPP2, Q14168
T5 sequence (Q14168 180-250, limits assumed, looked up): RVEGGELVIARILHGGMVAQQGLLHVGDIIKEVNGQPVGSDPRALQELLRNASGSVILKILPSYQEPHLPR

CARD11, Q9BXL7 = target: T6, CARD11, Q9BXL7
T6 sequence (Q9BXL7 662-765, limits assumed, looked up): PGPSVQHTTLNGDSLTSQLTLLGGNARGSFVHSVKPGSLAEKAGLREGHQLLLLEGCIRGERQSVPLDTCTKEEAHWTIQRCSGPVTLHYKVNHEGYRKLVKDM

SNTG2, Q9NY99 = target: T7, SNTG2, Q9NY99
T7 sequence (Q9NY99 68-166, limits assumed, looked up): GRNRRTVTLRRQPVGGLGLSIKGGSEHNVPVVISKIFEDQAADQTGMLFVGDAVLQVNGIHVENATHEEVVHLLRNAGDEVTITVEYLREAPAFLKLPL

IL16_4, Q14005 = target: IL16_4, Q14005
Sequence of IL16_4, Q14005 (Q14005 1229-1329): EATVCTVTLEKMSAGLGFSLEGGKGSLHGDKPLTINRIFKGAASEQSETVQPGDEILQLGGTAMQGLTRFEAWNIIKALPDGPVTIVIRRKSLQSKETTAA

MPP7, Q5T2T1 = target: T8, MPP7, Q5T2T1
T8 sequence (Q5T2T1 134-230, limits assumed, looked up): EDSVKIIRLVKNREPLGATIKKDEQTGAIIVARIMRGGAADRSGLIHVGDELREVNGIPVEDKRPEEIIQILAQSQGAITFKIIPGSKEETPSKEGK

DLG3_3, Q92796 = target: T9, DLG3_3, Q92796
T9 sequence (Q92796 374-475, limits assumed, looked up): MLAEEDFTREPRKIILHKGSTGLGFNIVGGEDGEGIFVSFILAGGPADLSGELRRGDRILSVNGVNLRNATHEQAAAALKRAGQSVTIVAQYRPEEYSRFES

GRIP2_5, Q9C0E4 = target: GRIP2_5, Q9C0E4
Sequence of GRIP2_5, Q9C0E4 (Q9C0E4 544-642): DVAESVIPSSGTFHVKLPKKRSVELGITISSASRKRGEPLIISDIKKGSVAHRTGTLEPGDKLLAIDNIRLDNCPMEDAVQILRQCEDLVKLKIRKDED

SCRIB_3, Q14160 = target: SCRIB_3, Q14160
Sequence of SCRIB_3, Q14160 (Q14160 999-1103): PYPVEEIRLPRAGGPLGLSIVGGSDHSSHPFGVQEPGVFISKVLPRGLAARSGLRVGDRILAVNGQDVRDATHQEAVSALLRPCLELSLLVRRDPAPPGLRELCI

NHERF4_1, Q86UT5-2 = target: NHERF4_1, Q86UT5-2
Sequence of NHERF4_1, Q86UT5-2 (Q86UT5 other isoform, or with tags, fused parts or gaps): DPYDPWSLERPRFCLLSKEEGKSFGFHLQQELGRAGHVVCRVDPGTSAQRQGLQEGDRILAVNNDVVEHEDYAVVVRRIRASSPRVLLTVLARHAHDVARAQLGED

FRMPD2_2, Q68DX3 = target: FRMPD2_2, Q68DX3
Sequence of FRMPD2_2, Q68DX3 (Q68DX3 944-1038): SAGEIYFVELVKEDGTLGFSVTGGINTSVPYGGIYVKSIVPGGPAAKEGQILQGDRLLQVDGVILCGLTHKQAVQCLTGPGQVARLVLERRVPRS

SCRIB_1, Q14160 = target: SCRIB_1, Q14160
Sequence of SCRIB_1, Q14160 (Q14160 718-814): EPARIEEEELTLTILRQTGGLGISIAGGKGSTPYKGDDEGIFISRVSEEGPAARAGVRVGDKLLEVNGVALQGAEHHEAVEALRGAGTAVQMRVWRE

Inadl_4, Q8NI35 = target: Inadl_4, Q8NI35
Sequence of Inadl_4, Q8NI35 (Q8NI35 547-651): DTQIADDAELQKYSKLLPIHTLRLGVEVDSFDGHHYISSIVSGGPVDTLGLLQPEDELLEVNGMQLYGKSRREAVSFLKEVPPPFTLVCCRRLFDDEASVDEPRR

TJP2_1, Q9UDY2 = target: TJP2_1, Q9UDY2
Sequence of TJP2_1, Q9UDY2 (Q9UDY2 24-128): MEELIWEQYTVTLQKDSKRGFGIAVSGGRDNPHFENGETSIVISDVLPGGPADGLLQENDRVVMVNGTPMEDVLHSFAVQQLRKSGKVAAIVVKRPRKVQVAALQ

PTPN3, P26045 = target: PTPN3, P26045
Sequence of PTPN3, P26045 (P26045 505-587): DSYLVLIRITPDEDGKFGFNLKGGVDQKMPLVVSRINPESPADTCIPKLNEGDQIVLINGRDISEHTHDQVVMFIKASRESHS

NOS1, P29475 = target: NOS1, P29475
Sequence of NOS1, P29475 (P29475 9-101): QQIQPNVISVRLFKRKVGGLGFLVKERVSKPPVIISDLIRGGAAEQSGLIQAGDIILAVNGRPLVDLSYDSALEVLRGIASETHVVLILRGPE

GRIP1_2, Q9Y3R0 = target: T10, GRIP1_2, Q9Y3R0
T10 sequence (Q9Y3R0 145-248, limits assumed, looked up): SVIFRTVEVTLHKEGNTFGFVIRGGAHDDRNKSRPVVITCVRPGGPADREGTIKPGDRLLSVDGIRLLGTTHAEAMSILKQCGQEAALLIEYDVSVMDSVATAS

ARHGEF12, Q9NZN5-2 = target: ARHGEF12, Q9NZN5-2
Sequence of ARHGEF12, Q9NZN5-2 (Q9NZN5 other isoform, or with tags, fused parts or gaps): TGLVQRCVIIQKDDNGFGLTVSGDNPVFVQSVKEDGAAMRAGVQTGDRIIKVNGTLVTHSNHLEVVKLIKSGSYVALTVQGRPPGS

GRIP2_4, Q9C0E4 = target: GRIP2_4, Q9C0E4
Sequence of GRIP2_4, Q9C0E4 (Q9C0E4 446-548): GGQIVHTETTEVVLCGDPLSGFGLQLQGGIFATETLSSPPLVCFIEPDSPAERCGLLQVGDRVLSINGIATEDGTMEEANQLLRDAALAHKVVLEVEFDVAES

RHPN1, Q8TCX5 = target: T11, RHPN1, Q8TCX5
T11 sequence (Q8TCX5 508-602, limits assumed, looked up): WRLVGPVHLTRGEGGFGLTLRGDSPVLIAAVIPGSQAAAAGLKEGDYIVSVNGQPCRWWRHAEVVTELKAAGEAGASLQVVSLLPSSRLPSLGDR

Sequence of GIPC2, Q8TF65 (Q8TF65 112-203): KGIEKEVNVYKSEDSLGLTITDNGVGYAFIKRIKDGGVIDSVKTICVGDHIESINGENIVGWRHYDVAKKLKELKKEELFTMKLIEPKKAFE

pKd (GIPC2, Q8TF65): below the threshold
pKd (LNX2_3, Q8N448): below the threshold
pKd (GRIP2_7, Q9C0E4): below the threshold
pKd (MPP6, Q9NZW5): below the threshold
pKd (DLG3_2, Q92796): below the threshold
pKd (PDLIM1, O00151): below the threshold
pKd (SIPA1L2, Q9P2F8): below the threshold
pKd (MPP2, Q14168): below the threshold
pKd (CARD11, Q9BXL7): below the threshold
pKd (SNTG2, Q9NY99): below the threshold
pKd (IL16_4, Q14005): below the threshold
pKd (MPP7, Q5T2T1): below the threshold
pKd (DLG3_3, Q92796): below the threshold
pKd (GRIP2_5, Q9C0E4): below the threshold
pKd (SCRIB_3, Q14160): below the threshold
pKd (NHERF4_1, Q86UT5-2): 4.05
pKd (FRMPD2_2, Q68DX3): below the threshold
pKd (SCRIB_1, Q14160): below the threshold
pKd (Inadl_4, Q8NI35): below the threshold
pKd (TJP2_1, Q9UDY2): below the threshold
pKd (PTPN3, P26045): below the threshold
pKd (NOS1, P29475): below the threshold
pKd (GRIP1_2, Q9Y3R0): below the threshold
pKd (ARHGEF12, Q9NZN5-2): below the threshold
pKd (GRIP2_4, Q9C0E4): below the threshold
pKd (RHPN1, Q8TCX5): below the threshold
Binder: ADRDHASDQL [CTBP1, Q13363]
